This note sets out measurements from patent US20130309172.

Data set [1] relates to AuNP-PVGLIGC-PEG (cleavable).
Data set [2] concerns the target AuNP-GIVGPLC-PEG (noncleavable negative control).
For data set [3], the target named is AuNP-PVGLIGC-PEG (cleavable). This is another data set of the same source.

With trypsin, the “cleavage of the peptide coating of the AuNP conjugate (UV-vis)” value in data set [1] is recorded as “Cleavable AuNPs treated with trypsin did not exhibit cleavage”.

B1: human matrix metalloproteinase (MMP-2) (protein)
chain: YNFFPRKPKWDKNQITYRIIGYTPDLDPETVDDAFARAFQVWSDVTPLRFSRIHDGEADIMINFGRWEHGDGYPFDGKDGLLAHAFAPGTGVGGDSHFDDDELWTLGEGQVVRVKYGNADGEYCKFPFLFNGKEYNSCTDTGRSDGFLWCSTTYNFEKDGKYGFCPHEALFTMGGNAEGQPCKFPFRFQGTSYDSCTTEGRTDGYRWCGTTEDYDRDKKYGFCPETAMSTVGGNSEGAPCVFPFTFLGNKYESCTSAGRSDGKMWCATTANYDDDRKWGFCPDQGYSLFLVAAHEFGHAMGLEHSQDPGALMAPIYTYTKNFRLSQDDIKGIQELYGASPDIDLGTGPTPTLGPVTPEICKQDIVFDGIAQIRGEIFFFKDRFIWRTVTPRDKPMGPLLVATFWPELPEKIDAVYEAPQEEKAVFFAGNEYWIYSASTLERGYPKPLTSLGLPPDVQRVDAAFNWSKNKKTYIFAGDKFWRYNEVKKKMDPGFPKLIADAWNAIPDNLDAVVDLQGGGHSYFFKGAYYLKLENQSLKSVKFGSIKSDWLGC
On to B1, for which the “cleavage of the peptide coating of the AuNP conjugate (DLS, zeta potential, UV-vis, TEM, FFF)” value in data set [2] is “Non-cleavable control and blocker control AuNPs exhibited no cleavage”; in data set [3] it was “cleavable AuNPs were converted to denuded AuNPs following exposure to MMP-2”.
